B1: 2126-Hu-H22 (antibody, IgG1, V domains shown)
VH: QVQLVQSGGELKKPGASVKVSCKASGYTFTDYSMHWVRQAPGQGLEWMGWINTETGEPTYADDFKGRFVFSLDTSVSTAYLQISSLKAEDTAVYFCVRVGRYDYAMDYWGQGTTVTVSS
VL: DIQMTQSPSSLSASVGDRVTITCKASQDVYTAVAWYQQKPGKAPKLLINSASYRYTGVPSRFSGSGSGTDFTLTISSLQPEDFATYYCQQHYSTPPTFGGGTKVEIK
notes: IgG1/Cκ
B2: 2126-Hu-H27 (antibody, IgG1, V domains shown)
VH: QVQLVQSGSELKKPGASVKVSCKASGYTFTDYSMHWVRQAPGQGLEWMGWINTGTGEPTYADDFKGRFVFSLDTSVSTAYLQISSLKAEDTAVYFCVRVGRYDYAMDYWGQGTTVTVSS
VL: DIQMTQSPSSLSASVGDRVTITCKASQDVYTAVAWYQQKPGKAPKLLINSASYRYTGVPSRFSGSGSGTDFTLTISSLQPEDFATYYCQQHYSTPPTFGGGTKVEIK
notes: IgG1/Cκ
B3: 2126-Hu-H31 (antibody, IgG1, V domains shown)
VH: QVQLVQSGSELKKPGASVKVSCKASGYTFTDYSMHWVRQAPGQGLEWMGWINTETGDPTYADDFKGRFVFSLDTSVSTAYLQISSLKAEDTAVYFCVRVGRYDYAMDYWGQGTTVTVSS
VL: DIQMTQSPSSLSASVGDRVTITCKASQDVYTAVAWYQQKPGKAPKLLINSASYRYTGVPSRFSGSGSGTDFTLTISSLQPEDFATYYCQQHYSTPPTFGGGTKVEIK
notes: IgG1/Cκ
B4: 2126-Hu-H26 (antibody, IgG1, name in Kabat numbering, V domains shown)
VH: QVQLVQSGSELKKPGASVKVSCKASGYTFTDYSMHWVRQAPGQGLEWMGWINTDTGEPTYADDFKGRFVFSLDTSVSTAYLQISSLKAEDTAVYFCVRVGRYDYAMDYWGQGTTVTVSS
VL: DIQMTQSPSSLSASVGDRVTITCKASQDVYTAVAWYQQKPGKAPKLLINSASYRYTGVPSRFSGSGSGTDFTLTISSLQPEDFATYYCQQHYSTPPTFGGGTKVEIK
notes: IgG1/Cκ
B5: 2126-Hu-H37 (antibody, IgG1, V domains shown)
VH: QVQLVQSGSELKKPGASVKVSCKASGYTFTDYSMHWVRQAPGQGLEWMGWINTETGEPTYADDFKGRFSFSLDTSVSTAYLQISSLKAEDTAVYFCVRVGRYDYAMDYWGQGTTVTVSS
VL: DIQMTQSPSSLSASVGDRVTITCKASQDVYTAVAWYQQKPGKAPKLLINSASYRYTGVPSRFSGSGSGTDFTLTISSLQPEDFATYYCQQHYSTPPTFGGGTKVEIK
notes: IgG1/Cκ
B6: 2126-Hu-H33 (antibody, IgG1, V domains shown)
VH: QVQLVQSGSELKKPGASVKVSCKASGYTFTDYSMHWVRQAPGQGLEWMGWINTETGEPTYADKFKGRFVFSLDTSVSTAYLQISSLKAEDTAVYFCVRVGRYDYAMDYWGQGTTVTVSS
VL: DIQMTQSPSSLSASVGDRVTITCKASQDVYTAVAWYQQKPGKAPKLLINSASYRYTGVPSRFSGSGSGTDFTLTISSLQPEDFATYYCQQHYSTPPTFGGGTKVEIK
notes: IgG1/Cκ
B7: 2126-Hu-H28 (antibody, IgG1, V domains shown)
VH: QVQLVQSGSELKKPGASVKVSCKASGYTFTDYSMHWVRQAPGQGLEWMGWINTYTGEPTYADDFKGRFVFSLDTSVSTAYLQISSLKAEDTAVYFCVRVGRYDYAMDYWGQGTTVTVSS
VL: DIQMTQSPSSLSASVGDRVTITCKASQDVYTAVAWYQQKPGKAPKLLINSASYRYTGVPSRFSGSGSGTDFTLTISSLQPEDFATYYCQQHYSTPPTFGGGTKVEIK
notes: IgG1/Cκ
B8: 2126-Hu-H23 (antibody, IgG1, V domains shown)
VH: QVQLVQSGSELKKPGASLKVSCKASGYTFTDYSMHWVRQAPGQGLEWMGWINTETGEPTYADDFKGRFVFSLDTSVSTAYLQISSLKAEDTAVYFCVRVGRYDYAMDYWGQGTTVTVSS
VL: DIQMTQSPSSLSASVGDRVTITCKASQDVYTAVAWYQQKPGKAPKLLINSASYRYTGVPSRFSGSGSGTDFTLTISSLQPEDFATYYCQQHYSTPPTFGGGTKVEIK
notes: IgG1/Cκ
B9: 2126-Hu-H39 (antibody, IgG1, V domains shown)
VH: QVQLVQSGSELKKPGASVKVSCKASGYTFTDYSMHWVRQAPGQGLEWMGWINTETGEPTYADDFKGRFVFSVDTSVSTAYLQISSLKAEDTAVYFCVRVGRYDYAMDYWGQGTTVTVSS
VL: DIQMTQSPSSLSASVGDRVTITCKASQDVYTAVAWYQQKPGKAPKLLINSASYRYTGVPSRFSGSGSGTDFTLTISSLQPEDFATYYCQQHYSTPPTFGGGTKVEIK
notes: IgG1/Cκ
B10: 2126-Hu-H29 (antibody, IgG1, V domains shown)
VH: QVQLVQSGSELKKPGASVKVSCKASGYTFTDYSMHWVRQAPGQGLEWMGWINTITGEPTYADDFKGRFVFSLDTSVSTAYLQISSLKAEDTAVYFCVRVGRYDYAMDYWGQGTTVTVSS
VL: DIQMTQSPSSLSASVGDRVTITCKASQDVYTAVAWYQQKPGKAPKLLINSASYRYTGVPSRFSGSGSGTDFTLTISSLQPEDFATYYCQQHYSTPPTFGGGTKVEIK
notes: IgG1/Cκ
B11: 2126-Hu-H32 (antibody, IgG1, V domains shown)
VH: QVQLVQSGSELKKPGASVKVSCKASGYTFTDYSMHWVRQAPGQGLEWMGWINTETGSPTYADDFKGRFVFSLDTSVSTAYLQISSLKAEDTAVYFCVRVGRYDYAMDYWGQGTTVTVSS
VL: DIQMTQSPSSLSASVGDRVTITCKASQDVYTAVAWYQQKPGKAPKLLINSASYRYTGVPSRFSGSGSGTDFTLTISSLQPEDFATYYCQQHYSTPPTFGGGTKVEIK
notes: IgG1/Cκ
B12: 2126-Hu-H34 (antibody, IgG1, V domains shown)
VH: QVQLVQSGSELKKPGASVKVSCKASGYTFTDYSMHWVRQAPGQGLEWMGWINTETGEPTYADNFKGRFVFSLDTSVSTAYLQISSLKAEDTAVYFCVRVGRYDYAMDYWGQGTTVTVSS
VL: DIQMTQSPSSLSASVGDRVTITCKASQDVYTAVAWYQQKPGKAPKLLINSASYRYTGVPSRFSGSGSGTDFTLTISSLQPEDFATYYCQQHYSTPPTFGGGTKVEIK
notes: IgG1/Cκ
B13: 2126-Hu-H25 (antibody, IgG1, V domains shown)
VH: QVQLVQSGSELKKPGASVKVSCKASGYTFTDYSMHWVRQAPGQGLEWMGWINTNTGEPTYADDFKGRFVFSLDTSVSTAYLQISSLKAEDTAVYFCVRVGRYDYAMDYWGQGTTVTVSS
VL: DIQMTQSPSSLSASVGDRVTITCKASQDVYTAVAWYQQKPGKAPKLLINSASYRYTGVPSRFSGSGSGTDFTLTISSLQPEDFATYYCQQHYSTPPTFGGGTKVEIK
notes: IgG1/Cκ
B14: 2126-Hu-H36 (antibody, IgG1, V domains shown)
VH: QVQLVQSGSELKKPGASVKVSCKASGYTFTDYSMHWVRQAPGQGLEWMGWINTETGEPTYADDFKGRFTFSLDTSVSTAYLQISSLKAEDTAVYFCVRVGRYDYAMDYWGQGTTVTVSS
VL: DIQMTQSPSSLSASVGDRVTITCKASQDVYTAVAWYQQKPGKAPKLLINSASYRYTGVPSRFSGSGSGTDFTLTISSLQPEDFATYYCQQHYSTPPTFGGGTKVEIK
notes: IgG1/Cκ
B15: 2126-Hu-H24 (antibody, IgG1, V domains shown)
VH: QVQLVQSGSELKKPGASVKVSCKASGYTFTDYAMHWVRQAPGQGLEWMGWINTETGEPTYADDFKGRFVFSLDTSVSTAYLQISSLKAEDTAVYFCVRVGRYDYAMDYWGQGTTVTVSS
VL: DIQMTQSPSSLSASVGDRVTITCKASQDVYTAVAWYQQKPGKAPKLLINSASYRYTGVPSRFSGSGSGTDFTLTISSLQPEDFATYYCQQHYSTPPTFGGGTKVEIK
notes: IgG1/Cκ
B16: 2126-Hu-H35 (antibody, IgG1, V domains shown)
VH: QVQLVQSGSELKKPGASVKVSCKASGYTFTDYSMHWVRQAPGQGLEWMGWINTETGEPTYADDVKGRFVFSLDTSVSTAYLQISSLKAEDTAVYFCVRVGRYDYAMDYWGQGTTVTVSS
VL: DIQMTQSPSSLSASVGDRVTITCKASQDVYTAVAWYQQKPGKAPKLLINSASYRYTGVPSRFSGSGSGTDFTLTISSLQPEDFATYYCQQHYSTPPTFGGGTKVEIK
notes: IgG1/Cκ
B17: 2126-Hu-H38 (antibody, IgG1, V domains shown)
VH: QVQLVQSGSELKKPGASVKVSCKASGYTFTDYSMHWVRQAPGQGLEWMGWINTETGEPTYADDFKGRFVISLDTSVSTAYLQISSLKAEDTAVYFCVRVGRYDYAMDYWGQGTTVTVSS
VL: DIQMTQSPSSLSASVGDRVTITCKASQDVYTAVAWYQQKPGKAPKLLINSASYRYTGVPSRFSGSGSGTDFTLTISSLQPEDFATYYCQQHYSTPPTFGGGTKVEIK
notes: IgG1/Cκ
B18: 2126-Hu-H30 (antibody, IgG1, name in Kabat numbering, V domains shown)
VH: QVQLVQSGSELKKPGASVKVSCKASGYTFTDYSMHWVRQAPGQGLEWMGWINTETGNPTYADDFKGRFVFSLDTSVSTAYLQISSLKAEDTAVYFCVRVGRYDYAMDYWGQGTTVTVSS
VL: DIQMTQSPSSLSASVGDRVTITCKASQDVYTAVAWYQQKPGKAPKLLINSASYRYTGVPSRFSGSGSGTDFTLTISSLQPEDFATYYCQQHYSTPPTFGGGTKVEIK
notes: IgG1/Cκ

The term Kd denotes a measure of binding affinity in units of concentration. As a reminder, the koff is a measure of how fast the partners let go of each other. The kon is a measure of how fast the partners come together.

For the assay, the target named is T1, recombinant human HER2 extracellular domain protein (human, UniProt P04626 23-652).
T1 construct: range 23-652; Range is printed for the immunogen/panning protein; also called ErbB2; recombinant HER2 protein
Nature of the assay: BLI, Protein A capture. (BLI is a label-free optical method that tracks binding on a fibre tip over time.)
For the molecule B1, the Kd came to 5.38 nM, the koff came to 0.000543 s⁻¹ and the kon came to 101000 M⁻¹ s⁻¹.
On to B2, for which the Kd worked out at 1.67 nM, the koff worked out at 0.000164 s⁻¹ and the kon amounted to 97900 M⁻¹ s⁻¹.
As for B3, the equilibrium dissociation constant (Kd) stood at 8.81 nM, the koff was determined as 0.000942 s⁻¹ and the kon is 107000 M⁻¹ s⁻¹.
For B4, the dissociation constant Kd came out at 11.1 nM, the koff was 0.00119 s⁻¹ and the kon was 107000 M⁻¹ s⁻¹.
Regarding B5, the Kd stood at 5.31 nM, the koff was determined as 0.000545 s⁻¹ and the kon stood at 103000 M⁻¹ s⁻¹.
With B6, the Kd came out at 2.83 nM, the koff stood at 0.00031 s⁻¹ and the kon was found to be 109000 M⁻¹ s⁻¹.
In the case of B7, the Kd stood at 3.08 nM, the koff amounted to 0.00035 s⁻¹ and the kon turned out to be 114000 M⁻¹ s⁻¹.
The matching figures for B8: 5.9 nM, 0.000623 s⁻¹ and 106000 M⁻¹ s⁻¹.
With B9, the Kd was 4.87 nM, the koff amounted to 0.000509 s⁻¹ and the kon came out at 105000 M⁻¹ s⁻¹.
With B10, the Kd worked out at 2.61 nM, the koff amounted to 0.000246 s⁻¹ and the kon was found to be 94300 M⁻¹ s⁻¹.
B11: the Kd was determined as 8.96 nM, the koff amounted to 0.000998 s⁻¹ and the kon turned out to be 111000 M⁻¹ s⁻¹.
As to B12, the Kd came out at 4.31 nM, the koff is 0.000454 s⁻¹ and the kon worked out at 105000 M⁻¹ s⁻¹.
Turning to B13, the Kd amounted to 7.57 nM, the koff amounted to 0.000749 s⁻¹ and the kon turned out to be 99000 M⁻¹ s⁻¹.
Consider B14, for which the Kd worked out at 5.3 nM, the koff stood at 0.000558 s⁻¹ and the kon was 105000 M⁻¹ s⁻¹.
In the case of B15, the Kd was 7.7 nM, the koff is 0.00083 s⁻¹ and the kon stood at 108000 M⁻¹ s⁻¹.
Taken in the same sequence, the figures for B16 were 5.87 nM, 0.000603 s⁻¹ and 103000 M⁻¹ s⁻¹.
The matching figures for B17: 8.4 nM, 0.000874 s⁻¹ and 104000 M⁻¹ s⁻¹.
Consider B18, for which the Kd stood at 13.1 nM, the koff was determined as 0.0015 s⁻¹ and the kon turned out to be 115000 M⁻¹ s⁻¹.

These data come from EP4725969A1 (Latticon (Suzhou) Biopharmaceuticals Co., Ltd., dated 2024).
